Source: the supplement of paper PMC6757056
± gives the standard deviation of the averaged measurements.

B1: library; a variant is named by its letters at N, in order (parent)
chain: GCUGUCACCGGUGUAUUACCCUAGUGGUCGACCGGUCUGAUGAGUCUNNNNNNAGACGAAACAGC

How the values were obtained:
hypoxanthine [1] = variants of: B1; test: normalized RNA/DNA level with ligand (relative to sTRSVctl = 100) (log10 (% of sTRSVctl)); ligand: hypoxanthine (xanthine aptamer); higher = less ribozyme self-cleavage, higher mRNA level; conditions: ligand concentration (+) RNA-Seq: 5 mM, HEK293T, reporter: mCherry (pCS4076), ligand present: yes
Method in brief: (§1)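 RNA level was computed as RNA reads over DNA reads divided by a spiked-in non-cleaving sequence or by the top sequences, then scaled and log-transformed. Scaling was ×100 with log10, the top group was 25 sequences, and the threshold was ≥100 DNA reads. The reads came from HEK293T cells transfected at 4 µg per 6-well well with ribozyme switch library plasmids (mCherry, or eGFP in some ligand experiments). Total RNA was extracted with EDTA 72 h after transfection, with any ligand added 1 h before it.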

hypoxanthine [2] = variants of: B1; test: normalized RNA/DNA level without ligand (relative to sTRSVctl = 100) (log10 (% of sTRSVctl)); ligand: hypoxanthine (xanthine aptamer); higher = less ribozyme self-cleavage, higher mRNA level; conditions: HEK293T, reporter: mCherry (pCS4076), ligand present: no
Method in brief: as §1

Variant | normalized RNA/DNA level with ligand (log10) (hypoxanthine [1]) | normalized RNA/DNA level without ligand (log10) (hypoxanthine [2])
GCUGUCACCGGUGUAUUACCCUAGUGGUCGACCGGUCUGAUGAGUCUUCCAACAGACGAAACAGC | 2 ± 0.021 | 1.9 ± 0.033
GCUGUCACCGGUGUAUUACCCUAGUGGUCGACCGGUCUGAUGAGUCUCCAUUGAGACGAAACAGC | 1.9 ± 0.056 | 1.8 ± 0.022
GCUGUCACCGGUGUAUUACCCUAGUGGUCGACCGGUCUGAUGAGUCUCCAUUAAGACGAAACAGC | 1.929 ± 0.017 | 1.84 ± 0.039
GCUGUCACCGGUGUAUUACCCUAGUGGUCGACCGGUCUGAUGAGUCUCCAUUUAGACGAAACAGC | 1.91 ± 0.021 | 1.86 ± 0.066
GCUGUCACCGGUGUAUUACCCUAGUGGUCGACCGGUCUGAUGAGUCUGCAUAGAGACGAAACAGC | 1.862 ± 0.011 | 1.43 ± 0.078
GCUGUCACCGGUGUAUUACCCUAGUGGUCGACCGGUCUGAUGAGUCUGCAUUAAGACGAAACAGC | 1.92 ± 0.023 | 1.877 ± 0.01
GCUGUCACCGGUGUAUUACCCUAGUGGUCGACCGGUCUGAUGAGUCUGCAUUUAGACGAAACAGC | 1.922 ± 0.019 | 1.88 ± 0.042
GCUGUCACCGGUGUAUUACCCUAGUGGUCGACCGGUCUGAUGAGUCUGCAUUCAGACGAAACAGC | 2 ± 0.023 | 1.81 ± 0.047
GCUGUCACCGGUGUAUUACCCUAGUGGUCGACCGGUCUGAUGAGUCUGCAUGAAGACGAAACAGC | 1.94 ± 0.042 | 1.71 ± 0.029
GCUGUCACCGGUGUAUUACCCUAGUGGUCGACCGGUCUGAUGAGUCUGCAUGUAGACGAAACAGC | 1.9 ± 0.03 | 1.68 ± 0.043
GCUGUCACCGGUGUAUUACCCUAGUGGUCGACCGGUCUGAUGAGUCUGCCAACAGACGAAACAGC | 1.927 ± 0.014 | 1.74 ± 0.039
GCUGUCACCGGUGUAUUACCCUAGUGGUCGACCGGUCUGAUGAGUCUACAUGCAGACGAAACAGC | 1.914 ± 0.015 | 1.77 ± 0.024
GCUGUCACCGGUGUAUUACCCUAGUGGUCGACCGGUCUGAUGAGUCUCCCAAUAGACGAAACAGC | 1.93 ± 0.026 | 1.83 ± 0.04
GCUGUCACCGGUGUAUUACCCUAGUGGUCGACCGGUCUGAUGAGUCUCCCAACAGACGAAACAGC | 1.96 ± 0.072 | 1.87 ± 0.023
GCUGUCACCGGUGUAUUACCCUAGUGGUCGACCGGUCUGAUGAGUCUCCAUGCAGACGAAACAGC | 1.95 ± 0.051 | 1.88 ± 0.069
GCUGUCACCGGUGUAUUACCCUAGUGGUCGACCGGUCUGAUGAGUCUCCAUGUAGACGAAACAGC | 1.913 ± 0.013 | 1.828 ± 0.016
GCUGUCACCGGUGUAUUACCCUAGUGGUCGACCGGUCUGAUGAGUCUUCAUGCAGACGAAACAGC | 1.95 ± 0.0044 | 1.882 ± 0.014
GCUGUCACCGGUGUAUUACCCUAGUGGUCGACCGGUCUGAUGAGUCUUCAUGUAGACGAAACAGC | 1.92 ± 0.038 | 1.628 ± 0.0081
GCUGUCACCGGUGUAUUACCCUAGUGGUCGACCGGUCUGAUGAGUCUUCAUGGAGACGAAACAGC | 1.9 ± 0.034 | 1.69 ± 0.049
GCUGUCACCGGUGUAUUACCCUAGUGGUCGACCGGUCUGAUGAGUCUUCAUCCAGACGAAACAGC | 2.032 ± 0.0044 | 2 ± 0.049
GCUGUCACCGGUGUAUUACCCUAGUGGUCGACCGGUCUGAUGAGUCUUCAUCGAGACGAAACAGC | 1.99 ± 0.049 | 1.83 ± 0.058

Variant | normalized RNA/DNA level with ligand (log10) (hypoxanthine [1]) | normalized RNA/DNA level without ligand (log10) (hypoxanthine [2])
GCUGUCACCGGUGUAUUACCCUAGUGGUCGACCGGUCUGAUGAGUCUUCAUCUAGACGAAACAGC | 2.026 ± 0.011 | 1.99 ± 0.059
GCUGUCACCGGUGUAUUACCCUAGUGGUCGACCGGUCUGAUGAGUCUUCAUUAAGACGAAACAGC | 1.927 ± 0.0081 | 1.884 ± 0.0033
GCUGUCACCGGUGUAUUACCCUAGUGGUCGACCGGUCUGAUGAGUCUUCAUUCAGACGAAACAGC | 2.0015 ± 0.00059 | 1.9887 ± 0.00019
GCUGUCACCGGUGUAUUACCCUAGUGGUCGACCGGUCUGAUGAGUCUUCAUUGAGACGAAACAGC | 1.91 ± 0.026 | 1.72 ± 0.043
GCUGUCACCGGUGUAUUACCCUAGUGGUCGACCGGUCUGAUGAGUCUCCAUAGAGACGAAACAGC | 1.894 ± 0.013 | 1.55 ± 0.06
GCUGUCACCGGUGUAUUACCCUAGUGGUCGACCGGUCUGAUGAGUCUACAUUUAGACGAAACAGC | 1.9 ± 0.04 | 1.796 ± 0.01
GCUGUCACCGGUGUAUUACCCUAGUGGUCGACCGGUCUGAUGAGUCUACAUUAAGACGAAACAGC | 1.926 ± 0.0045 | 1.85 ± 0.036
GCUGUCACCGGUGUAUUACCCUAGUGGUCGACCGGUCUGAUGAGUCUACAUUGAGACGAAACAGC | 1.91 ± 0.057 | 1.53 ± 0.043
GCUGUCACCGGUGUAUUACCCUAGUGGUCGACCGGUCUGAUGAGUCUACAUAUAGACGAAACAGC | 1.89 ± 0.072 | 1.6935 ± 0.0011
GCUGUCACCGGUGUAUUACCCUAGUGGUCGACCGGUCUGAUGAGUCUACCAAGAGACGAAACAGC | 1.89 ± 0.088 | 1.5 ± 0.098
GCUGUCACCGGUGUAUUACCCUAGUGGUCGACCGGUCUGAUGAGUCUGCAUCAAGACGAAACAGC | 1.94 ± 0.041 | 1.89 ± 0.035
GCUGUCACCGGUGUAUUACCCUAGUGGUCGACCGGUCUGAUGAGUCUGCAUCUAGACGAAACAGC | 1.98 ± 0.039 | 1.87 ± 0.004
GCUGUCACCGGUGUAUUACCCUAGUGGUCGACCGGUCUGAUGAGUCUGCAUCCAGACGAAACAGC | 1.86 ± 0.069 | 1.82 ± 0.025
GCUGUCACCGGUGUAUUACCCUAGUGGUCGACCGGUCUGAUGAGUCUACAUCCAGACGAAACAGC | 1.98 ± 0.049 | 1.931 ± 0.0044
GCUGUCACCGGUGUAUUACCCUAGUGGUCGACCGGUCUGAUGAGUCUACAUCAAGACGAAACAGC | 1.96 ± 0.046 | 1.91 ± 0.029
GCUGUCACCGGUGUAUUACCCUAGUGGUCGACCGGUCUGAUGAGUCUACAUCUAGACGAAACAGC | 1.97 ± 0.024 | 1.87 ± 0.073
GCUGUCACCGGUGUAUUACCCUAGUGGUCGACCGGUCUGAUGAGUCUCCAUCUAGACGAAACAGC | 2.036 ± 0.0026 | 1.951 ± 0.015
GCUGUCACCGGUGUAUUACCCUAGUGGUCGACCGGUCUGAUGAGUCUCCAUCCAGACGAAACAGC | 2 ± 0.087 | 1.975 ± 0.015
GCUGUCACCGGUGUAUUACCCUAGUGGUCGACCGGUCUGAUGAGUCUCCAUCAAGACGAAACAGC | 1.97 ± 0.056 | 2.01 ± 0.049
GCUGUCACCGGUGUAUUACCCUAGUGGUCGACCGGUCUGAUGAGUCUCCAUCGAGACGAAACAGC | 1.91 ± 0.024 | 1.79 ± 0.019
GCUGUCACCGGUGUAUUACCCUAGUGGUCGACCGGUCUGAUGAGUCUUCAUAUAGACGAAACAGC | 1.88 ± 0.029 | 1.77 ± 0.041
